These results are taken from publication PMC4231716.

The experiment has as its target HIV-1JR-FLΔCT Env trimer (HIV-1 JR-FL) (UniProt Q75760). As to the kind of experiment: flow cytometry on cells.

Turning to “C34-Ig, fusion protein of an immunoglobulin Fc and the gp41 HR2 peptide (Fc fusion)”, the percent of Env-expressing cells binding C34-Ig came out at 37%.
